# Source: PMC5913127 (Scientific Reports, 2018)
# How the values were obtained:
# [1] = target: Aβ1-40; experiment: ELISA, binding of Fab fragments to biotinylated Aβ1-40 on streptavidin-coated plates; details: papain-generated Fab fragments, Aβ1-40-Lys-Biotin 1 μg/mL on streptavidin plates, average of two measurements
# Description: For binding studies with Fab fragments, biotin-conjugated Aβ1-40 (Aβ1-40-Lys-Biotin; AnaSpec) was captured on streptavidin-coated plates (Thermo Fisher Scientific) by incubating 50 μL/well of the peptide at a concentration of 1 μg/mL in Assay Buffer (PBS containing 1% bovine serum albumin (BSA)) for 1 h at room temperature. Plates were washed with Wash Buffer (PBS containing 0.05% Tween-20) and blocked for 1 h at room temperature with Blocking Buffer (PBS containing 1% BSA). Antibodies or Fabs were serially diluted to the indicated concentrations in Assay Buffer, and 50 μL/well were added to plates in duplicate wells and incubated for 2 h at room temperature. Plates were washed three times with Wash Buffer, and bound antibodies or Fabs were detected using a horseradish peroxidase (HRP)-conjugated goat anti-mouse polyclonal secondary antibody (Jackson ImmunoResearch), followed by measurement of captured HRP by incubation with 1-Step TMB substrate (Thermo Fisher Scientific) following the manufacturer’s instructions.
# [2] = test system: monomeric Aβ1-40; details: read-out: mAb binding soluble Aβ1-40 (EC50); ELISA; monomeric biotinylated Aβ1-40 on captured antibody (5 μg/mL); average of two measurements
# Description: For preparation of monomeric Aβ peptides, the Aβ HFIP film was dissolved in dimethyl sulfoxide (DMSO) at a concentration of 1 mg/mL then diluted to the target concentration in assay buffers and used immediately.
# To measure binding of soluble monomeric Aβ1-40 peptide to immobilized antibodies, plates were coated with 50 μL/well of 5 μg/mL AffiniPure goat anti-mouse IgG Fcγ fragment-specific antibody (Jackson ImmunoResearch) in Coating Buffer. […] Plates were incubated at room temperature for 1 h, washed 3 times with Wash Buffer, incubated with serially diluted monomeric biotin-conjugated Aβ1-40 (Aβ1-40-Lys-Biotin; AnaSpec) in Blocking Buffer at the indicated concentrations, and washed 3 times with Wash Buffer. Binding was detected using HRP-conjugated streptavidin (Thermo Fisher Scientific) followed by incubation with 1-Step TMB substrate.
# [3] = test system: Aβ1-42 fibrils; experiment: Negative-stain EM of fibrils with gold-conjugated antibodies; assay type: binding; details: fibril-associated gold particles per μm^2; 100 images; chaducanumab higher
# Description: Aβ1-40 and Aβ1-42 peptides (AnaSpec) were dissolved in 5 M guanidine-HCl, 50 mM Tris-HCl, pH 8.0 at a concentration of 1 mg/mL. For growth of the Aβ1-40 fibrils, the solution was dialyzed (dialysis tubes, 1 kDa cutoff, GE Healthcare) against buffer (100 mM Na2HPO4, pH 8, 0.01% NaN3) for 4–6 h, then sonicated and agitated based on protocols described by Petkova and colleagues. For Aβ1-42 fibrils, the dialysis buffer was supplemented with 100 mM NaCl and 100 μM ZnCl2 to decrease fibril polymorphism, as previously described. All Aβ fibrils were grown at 24 °C for 3 days. […]
# A 5-μL aliquot of Aβ1-40 or Aβ1-42 fibril sample (1 mg/mL) was adsorbed for 1 min on a glow-discharged carbon-coated copper grid. […] All quantifications were done using the Visiopharm image analysis software. Gold-conjugated anti-Aβ antibodies and Aβ1-40 or Aβ1-42 fibrils were detected with a customized algorithm. […] The data were subjected to a D’Agostino & Pearson normality test, and P-values were subsequently calculated using a Kruskal-Wallis one-way analysis of variance (ANOVA). […]
# 100 images were collected for each sample. […] (e) Labeling densities were calculated as the number of fibril-associated gold particles per µm2 for each image with mean ± SD for each group, as described in Fig 3. Quantification of the number of gold particles that […]
# [4] = test system: dimeric Aβ1-15 MAP; experiment: ELISA with multi-antigen peptides, dimer; assay type: binding; details: result in words
# Description: (§1) Aβ peptide binding to anti-Aβ antibodies measured by isothermal titration calorimetry (ITC). Titration of mAb with Aβ1-28 peptide. […]
# (§2) mAb:Aβ ratio. The solid line is the fit to a two-site binding model (2 Aβ peptides binding to 1 mAb). The average KD values were calculated from […]
# (§3) ELISA of binding of anti-Aβ antibodies to bivalent and tetravalent multi-antigen peptides Biotinylated Aβ1-15 multivalent multi-antigen peptides (MAPs) based on branched lysine residues were custom synthesized and purified (LifeTein). […]
# (§4) goat anti-mouse IgG Fcγ fragment-specific antibody (Jackson ImmunoResearch) in Coating Buffer. The coated plates were washed, blocked as described in Methods, and incubated with serial dilutions of dimeric or tetrameric biotinylated Aβ1-15 MAP in Blocking Buffer at the indicated concent rations in […]
# (§5) (1 picture or pasted object on this page, not shown here)
# (§6) Figure S5. Binding of anti-Aβ antibodies to dimeric and tetrameric Aβ as assessed by ELISA. (a) Design of biotin-conjugated Aβ1-15 multivalent multi-antigen peptides (MAPs). Binding of anti-Aβ antibodies to MAPs with Aβ1-15x2 dimer (b) and Aβ1-15x4 tetramer (c).
# [5] = target: Aβ1-16 peptide; experiment: Microscale thermophoresis (MST); assay type: binding; details: MST in solution; 5-TAMRA-labeled Aβ1-16; PBS, Triton X-100; average of three replicates
# [6] = target: fibrillar Aβ1-42; experiment: ELISA, binding of antibodies to immobilized Aβ1-42 fibrils; details: mIgG2a chimeric antibodies on fibrillar Aβ1-42 coated at 2.5 μg/mL, 2 h room temperature, average of two measurements, read-out: mAb binding aggregated Aβ1-42 (EC50)
# [7] = target: Aβ1-40 monomer; experiment: ELISA-based competition assay: antibody binding to immobilized oligomeric Aβ1-42 competed by free monomeric Aβ1-40; details: immobilized oligomeric Aβ1-42 2.5 μg/mL, antibody 0.4 nM, 2 h room temperature, mean of duplicate wells
# Description: Finally, we determined the binding of Fab fragments of the antibodies to Aβ1-40 (Fig. 1d).
# To measure competition by soluble monomeric Aβ1-40, plates were coated with Aβ1-42 peptide at 2.5 μg/mL as above. In this case the oligomeric preparation of […] was used as the substrate to ensure sufficient signal with each test antibody. […] The plates were incubated at room temperature for 2 h, and bound antibody was detected with an HRP-conjugated goat anti-mouse polyclonal secondary antibody followed by measurement of HRP activity using 1-Step TMB substrate as described above. All data points are the mean of duplicate wells.
# [8] = test system: soluble Aβ1-28; experiment: SPR, soluble Aβ1-28 binding to surface-captured intact antibody
# Description: Analysis of A binding kinetics using surface plasmon resonance (SPR)
# To identify if surface immobilization through C -terminal biotin affects the bi nding of antibodies targeting the N terminus, a separate experiment was performed, in which the binding of soluble Aβ1-28 to surface-captured antibody was measured (Fig. S1). This truncated form of A β was used to minimize aggregation and contains the full epitope for all antibodies tested (Table 1). Intact antibody was captured at 100 -600 RU on a CM5 chip prepared with mouse antibody capture reagent (GE Healthcare), and the binding response of Aβ1-28 was measured relative to a reference sensor with no anti -Aβ antibody. In this assay
# Surface plasmon resonance analysis of A1-28 binding to anti-A antibodies immobilized on a muIgG -capture sensor chip surface.
# corresponding fits to a 1:1 binding model (red curves).
# up to 30 µM. Kinetics and affinity constants determined are listed in (e).
# [9] = test system: Aβ1-40 fibrils; experiment: Negative-stain EM of fibrils with gold-conjugated antibodies; assay type: binding; details: fibril-associated 10-nm gold particles (≤10 nm to fibril) per μm^2; 100 images; ^chaducanumab higher
# Description: Figure 3 Negative-stain electron microscopy of Aβ1-40 fibrils incubated with gold-conjugated anti-Aβ antibodies. […] 100 images were collected for each sample. A representative image for each data set is shown. Scale bars are 100 nm. (e) Labeling densities were calculated as the number of fibril-associated gold particles (distance of ≤10 nm to fibril) per 1 μm^2 for each image, with mean ± SD for each group. The differences in the gold-labeled antibodies binding to Aβ fibrils were tested with a one-way ANOVA.
# Aβ1-40 and Aβ1-42 peptides (AnaSpec) were dissolved in 5 M guanidine-HCl, 50 mM Tris-HCl, pH 8.0 at a concentration of 1 mg/mL. For growth of the Aβ1-40 fibrils, the solution was dialyzed (dialysis tubes, 1 kDa cutoff, GE Healthcare) against buffer (100 mM Na2HPO4, pH 8, 0.01% NaN3) for 4–6 h, then sonicated and agitated based on protocols described by Petkova and colleagues. […]
# A 5-μL aliquot of Aβ1-40 or Aβ1-42 fibril sample (1 mg/mL) was adsorbed for 1 min on a glow-discharged carbon-coated copper grid. […] All quantifications were done using the Visiopharm image analysis software. Gold-conjugated anti-Aβ antibodies and Aβ1-40 or Aβ1-42 fibrils were detected with a customized algorithm. […] The data were subjected to a D’Agostino & Pearson normality test, and P-values were subsequently calculated using a Kruskal-Wallis one-way analysis of variance (ANOVA).
# [10] = test system: tetrameric Aβ1-15 MAP; experiment: ELISA with multi-antigen peptides, tetramer; assay type: binding; details: result in words
# Description: as §1, §2, §3, §4, §5, §6
# [11] = test system: monomeric Aβ1-40-biotin; experiment: SPR, Fab fragments binding to surface-captured Aβ1-40-biotin; details: SPR Biacore T200
# Description: Figure 2 Surface plasmon resonance analysis of the binding of anti-Aβ antibody Fab fragments to Aβ1-40-biotin immobilized on a biotin-capture sensor chip surface. […] Fabs were injected over an Aβ1-40-biotin coated sensor chip for 2 min in (a) and 3 min in (b–d), where the rising response describes the approach to steady state binding and beyond which the response drops due to dissociation of the Fabs.
# Binding kinetics and affinity measurements were performed with a Biacore T200 instrument (GE Healthcare). Aβ1-40-biotin was captured on a Biotin CAPture chip (GE Healthcare) at 3–7 pg/mm^2 from solutions at 10–20 ng/mL in Biacore buffer (10 mM HEPES, pH 7.2, 150 mM NaCl, 3.4 mM EDTA, 0.05% BSA, 0.005% surfactant P20) using reagents and protocols provided by the manufacturer. […] Antibody Fab fragments were injected for 2-3 min at 30 μL/min and a range of concentrations in Biacore buffer, as indicated in the Fig. 2 legend, and the binding response relative to a reference sensor with no Aβ1-40-biotin was recorded. Data were analyzed with Biacore T200 Evaluation Software v3.0 using a 1:1 binding model.
# [12] = test system: Aβ (Monomer, Aggregate); details: A = aggregate, M = monomer; ref [9]–[19],[54] as given per antibody in column Ref. of Table 1; cited from earlier work
# [13] = Fab binding to Aβ1-40-biotin captured at 3–7 pg/mm^2, 1:1 binding model
molecule,measurement,setting,value
"gantenerumab: anti-Aβ clinical candidate antibody, Ph3 (antibody, chains of the INN, looked up, V domains shown) VH: QVELVESGGGLVQPGGSLRLSCAASGFTFSSYAMSWVRQAPGKGLEWVSAINASGTRTYYADSVKGRFTISRDNSKNTLYLQMNSLRAEDTAVYYCARGKGNTHKPYGYVRYFDVWGQGTLVTVSS VL: DIVLTQSPATLSLSPGERATLSCRASQSVSSSYLAWYQQKPGQAPRLLIYGASSRATGVPARFSGSGSGTDFTLTISSLEPEDFATYYCLQIYNMPITFGQGTKVEIK",EC50,[1],5.9 nM
"^chgantenerumab: murine chimeric IgG2a/kappa analog with the variable domains of gantenerumab (antibody, chains of the INN, looked up, V domains shown, murine chimeric IgG2a/kappa) VH: QVELVESGGGLVQPGGSLRLSCAASGFTFSSYAMSWVRQAPGKGLEWVSAINASGTRTYYADSVKGRFTISRDNSKNTLYLQMNSLRAEDTAVYYCARGKGNTHKPYGYVRYFDVWGQGTLVTVSS VL: DIVLTQSPATLSLSPGERATLSCRASQSVSSSYLAWYQQKPGQAPRLLIYGASSRATGVPARFSGSGSGTDFTLTISSLEPEDFATYYCLQIYNMPITFGQGTKVEIK",EC50,[2],300 nM
same,labeling density of chaducanumab compared to the named antibody,[3],3.1 fold
same,affinity for dimeric Aβ1-15 MAP,[4],sub-nanomolar
same,Kd,[5],97 nM
same,EC50,[6],0.3 nM
same,IC50,[7],330 nM
same,EC50,[1],5.9 nM
same,decrease in affinity using soluble Aβ versus immobilized Aβ1-40,[8]; comparison with Table 2,> 50 fold
same,decrease in association rate using soluble Aβ,[8]; comparison with immobilized Aβ1-40,20 fold
same,Kd,"[8]; intact antibody captured at 100-600 RU on CM5 mouse antibody capture chip, 1:1 binding model, read-out: affinity of soluble Aβ1-28 for antibody",~1000 nM
same,labeling density of ^chaducanumab compared to the named antibody,[9],3.6 fold
same,affinity for tetrameric Aβ1-15 MAP,[10],sub-nanomolar
same,"Association rate, ka",[11]; [13],660000 M⁻¹ s⁻¹
same,"Dissociation rate, kd",[11]; [13],0.015 s⁻¹
same,Kd,"[11]; Fab binding to Aβ1-40-biotin, ^chaducanumab from steady state fit, read-out: Equilibrium affinity, KD",23 nM
"BAN2401: anti-Aβ clinical candidate antibody, Ph2; mouse analog mAb158 (antibody, chains of the INN, looked up, V domains shown) VH: EVQLVESGGGLVQPGGSLRLSCSASGFTFSSFGMHWVRQAPGKGLEWVAYISSGSSTIYYGDTVKGRFTISRDNAKNSLFLQMSSLRAEDTAVYYCAREGGYYYGRSYYTMDYWGQGTTVTVSS VL: DVVMTQSPLSLPVTPGAPASISCRSSQSIVHSNGNTYLEWYLQKPGQSPKLLIYKVSNRFSGVPDRFSGSGSGTDFTLRISRVEAEDVGIYYCFQGSHVPPTFGPGTKLEIK","Aβ selectivity (Monomer, Aggregate)",[12],A ≫ M
